Source: patent US20220267453A1 (SAITAMA MEDICAL UNIVERSITY, published 2022)

What was measured:
[1] = target: T1, human ALK2-EGFP expressed in HEK293A cells (human, UniProt Q04771 21-509); assay: conclusion from flow cytometry competition with labeled A2-27D on HEK293A cells expressing human ALK2-EGFP
T1 construct: also called pcDEF3/human ALK2-EGFP; not shown: EGFP fused to ALK2
T1 sequence: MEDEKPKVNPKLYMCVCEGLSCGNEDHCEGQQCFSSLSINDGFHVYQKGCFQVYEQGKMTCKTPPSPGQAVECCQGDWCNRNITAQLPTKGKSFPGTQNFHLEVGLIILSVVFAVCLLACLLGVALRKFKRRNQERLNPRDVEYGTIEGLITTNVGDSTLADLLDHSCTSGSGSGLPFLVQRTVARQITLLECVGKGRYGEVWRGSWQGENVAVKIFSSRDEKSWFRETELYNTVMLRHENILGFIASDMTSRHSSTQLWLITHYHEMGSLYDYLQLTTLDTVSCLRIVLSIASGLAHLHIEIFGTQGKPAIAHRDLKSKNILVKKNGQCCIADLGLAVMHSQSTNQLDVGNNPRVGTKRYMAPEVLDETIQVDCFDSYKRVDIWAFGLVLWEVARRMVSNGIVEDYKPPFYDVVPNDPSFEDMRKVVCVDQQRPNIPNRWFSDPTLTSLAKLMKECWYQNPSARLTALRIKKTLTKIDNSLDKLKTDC
Description: In the same manner as in Example 3, HEK293A cells were transiently transfected with pcDEF3/human ALK2-EGFP using Lipofectamine 2000 (manufactured by Thermo Fisher Scientific Inc.). After 2.5 hours, the medium was replaced with fresh 10% FBS-containing DMEM medium, and the cells were cultured overnight. On the following day, […] each of the cell suspensions adjusted to 1×10⁶ cells/mL was dispensed into a 1.5-mL microfuge and centrifuged at 500 g for 5 minutes, and then the supernatant was removed. To the cells, 100 μL of a mixed solution of Alexa fluor 647-labeled A2-27D diluted to 1 μg/mL and 10 μg/mL purified IgG was added, and the cells were left for 30 minutes at 4° C. After the cells were washed with PBS three times, fluorescence was detected by a flow cytometer (BD Accuri C6; manufactured by BD Biosciences). The intensity of EGFP expressed by the cells and the fluorescence intensity of stained Alexa flour 647 were plotted.

[2] = target: T2, Human ALK2-His (Cat. #10227-H088) from Sino Biological Inc. (human, UniProt Q04771 21-123); assay: ELISA of hybridoma culture supernatant on antigen immobilized at 1 µg/ml (selection of hybridomas)
T2 construct: Bought recombinant protein; also called the antigen; not shown: His tag
T2 sequence: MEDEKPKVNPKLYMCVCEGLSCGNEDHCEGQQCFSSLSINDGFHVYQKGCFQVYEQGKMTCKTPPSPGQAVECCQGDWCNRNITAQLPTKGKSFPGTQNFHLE
Description: One week after the cell fusion, using each culture supernatant, clones recognizing human ALK2-His used as the antigen were selected by the enzyme-linked immunosorbent assay (ELISA), and clones recognizing human ALK1-His (Sino Biological Inc.) were excluded. ELISA was performed as follows.
First, the antigen diluted to 1 μg/ml with PBS was immobilized onto a 96-well ELISA plate (NUNC, Cat. #442404) for 2 hours at room temperature or overnight at 4° C. The immobilized solution was removed, and the plate was blocked with a 0.5% skim milk solution dissolved in PBS for 30 minutes at room temperature. Next, the above-described culture supernatant of hybridomas was added, and the plate was left for 1 hour at room temperature. After the plate was washed, an ALP-labeled anti-rat IgG antibody (SAB, Inc.) diluted with a 0.5% skim milk solution to 1:2500 was added, and the plate was further left for 1 hour at room temperature. After the plate was washed, a phenyl phosphate substrate was reacted at room temperature, and then absorbance at a wavelength of 492 nm was measured.

[3] = target: T3, ALK2 expressed in mice (C57BL/6 mouse newborn organs, tissue sections) (mouse, UniProt P37172 21-509); assay: immunohistological staining of frozen sections of mouse newborns; 10 µg/ml primary antibody
T3 construct: Endogenous protein in paraformaldehyde-fixed frozen or paraffin sections of mouse newborns; not a purified protein; also called mouse ALK2 (endogenous)
T3 sequence: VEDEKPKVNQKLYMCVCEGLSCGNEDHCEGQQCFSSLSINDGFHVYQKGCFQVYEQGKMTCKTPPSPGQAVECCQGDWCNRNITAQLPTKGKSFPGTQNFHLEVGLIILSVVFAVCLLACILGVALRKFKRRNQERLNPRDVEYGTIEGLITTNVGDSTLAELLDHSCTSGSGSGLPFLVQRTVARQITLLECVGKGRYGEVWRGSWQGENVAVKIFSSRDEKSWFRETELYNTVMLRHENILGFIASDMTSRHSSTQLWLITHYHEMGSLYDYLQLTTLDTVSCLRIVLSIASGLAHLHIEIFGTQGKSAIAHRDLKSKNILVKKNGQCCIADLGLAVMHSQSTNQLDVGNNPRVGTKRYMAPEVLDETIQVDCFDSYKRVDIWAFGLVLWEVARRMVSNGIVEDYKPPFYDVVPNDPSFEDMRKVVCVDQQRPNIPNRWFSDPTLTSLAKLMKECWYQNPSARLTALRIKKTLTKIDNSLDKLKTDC
Description: C57BL/6 mouse newborns were each fixed in a 4% paraformaldehyde-phosphate buffer solution for 2 days and then freeze-embedded in O.C.T Compound (manufactured by Sakura Finetek Japan Co., Ltd.), and frozen sections were prepared with a thickness of 5 μm using a cryostat (manufactured by Leica Biosystems Nussloch GmbH, Cat. #CM3050S). The sections were washed with PBS three time and reacted with an endogenous enzyme activity blocking solution (manufactured by Vector Laboratories, Inc., Cat. #SP-6000) for 10 minutes. […] On the following day, the sections were washed with PBS-T three times and reacted with HRP-conjugated anti-rat IgG antibody ImmPRESS Reagent (manufactured by Vector Laboratories, Inc., Cat. #MP-7444) as a secondary antibody for 30 minutes at 37° C. Then, the sections were washed with PBS-T three times, and DAB color development (manufactured by Vector Laboratories, Inc., Cat. #SK-4100) was performed. After washing with distilled water, the sections were counter-stained with hematoxylin, mounted on a glass cover according to a standard method, and observed under BZ-9000 (manufactured by Keyence Corp.).

[4] = target: T4, mouse ALK2(WT)-V5-His expressed in HEK293A cells (mouse, UniProt P37172 21-509); assay: conclusion from BMP-specific luciferase reporter assay in transfected HEK293A cells
T4 construct: Full-length receptor overexpressed by transient transfection; also called pcDEF3/mouse ALK2(WT)-V5-His; not shown: V5-His tag of the pcDEF3 construct
T4 sequence: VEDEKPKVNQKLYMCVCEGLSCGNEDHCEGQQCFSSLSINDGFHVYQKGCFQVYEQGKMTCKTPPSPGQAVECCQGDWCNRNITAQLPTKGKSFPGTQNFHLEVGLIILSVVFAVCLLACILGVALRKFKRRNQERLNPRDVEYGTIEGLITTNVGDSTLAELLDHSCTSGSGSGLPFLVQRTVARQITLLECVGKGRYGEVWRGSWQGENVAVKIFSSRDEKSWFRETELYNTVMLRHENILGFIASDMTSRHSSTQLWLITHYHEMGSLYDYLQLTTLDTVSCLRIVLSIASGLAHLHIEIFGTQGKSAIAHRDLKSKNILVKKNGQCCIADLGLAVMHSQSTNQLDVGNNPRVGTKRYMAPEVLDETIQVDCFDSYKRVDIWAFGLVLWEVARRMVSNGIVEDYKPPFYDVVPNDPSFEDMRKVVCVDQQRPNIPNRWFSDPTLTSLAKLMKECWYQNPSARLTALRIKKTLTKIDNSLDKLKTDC

[5] = target: T5, rat ALK2(WT)-V5-His expressed in HEK293A cells (rat, UniProt P80201 21-509); assay: as above
T5 construct: the end 509 for rat is meant as the end of the entry; also called rat wild-type ALK2; pcDEF3/rat ALK2(WT)-V5-His; not shown: V5-His tag of the pcDEF3 construct
T5 sequence: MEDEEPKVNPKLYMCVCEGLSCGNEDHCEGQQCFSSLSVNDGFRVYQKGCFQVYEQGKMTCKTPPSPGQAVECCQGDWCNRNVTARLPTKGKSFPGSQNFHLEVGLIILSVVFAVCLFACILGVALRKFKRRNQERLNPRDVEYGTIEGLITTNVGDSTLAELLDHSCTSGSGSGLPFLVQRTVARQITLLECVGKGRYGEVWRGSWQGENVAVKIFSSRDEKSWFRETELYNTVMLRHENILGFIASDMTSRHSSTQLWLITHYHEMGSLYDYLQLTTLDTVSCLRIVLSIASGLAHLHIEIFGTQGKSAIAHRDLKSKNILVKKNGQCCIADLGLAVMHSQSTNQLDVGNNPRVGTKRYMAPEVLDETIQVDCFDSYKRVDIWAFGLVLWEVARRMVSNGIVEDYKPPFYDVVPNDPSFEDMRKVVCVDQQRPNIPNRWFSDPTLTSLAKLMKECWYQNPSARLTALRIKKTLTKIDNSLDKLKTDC

[6] = target: T6, human ALK2(WT)-V5-His expressed in HEK293A cells (human, UniProt Q04771 21-509); assay: as above
T6 construct: Full-length receptor overexpressed by transient transfection; also called pcDEF3/human ALK2(WT)-V5-His; human ALK2(WT)-VS-His; not shown: V5-His tag of the pcDEF3 construct
T6 sequence: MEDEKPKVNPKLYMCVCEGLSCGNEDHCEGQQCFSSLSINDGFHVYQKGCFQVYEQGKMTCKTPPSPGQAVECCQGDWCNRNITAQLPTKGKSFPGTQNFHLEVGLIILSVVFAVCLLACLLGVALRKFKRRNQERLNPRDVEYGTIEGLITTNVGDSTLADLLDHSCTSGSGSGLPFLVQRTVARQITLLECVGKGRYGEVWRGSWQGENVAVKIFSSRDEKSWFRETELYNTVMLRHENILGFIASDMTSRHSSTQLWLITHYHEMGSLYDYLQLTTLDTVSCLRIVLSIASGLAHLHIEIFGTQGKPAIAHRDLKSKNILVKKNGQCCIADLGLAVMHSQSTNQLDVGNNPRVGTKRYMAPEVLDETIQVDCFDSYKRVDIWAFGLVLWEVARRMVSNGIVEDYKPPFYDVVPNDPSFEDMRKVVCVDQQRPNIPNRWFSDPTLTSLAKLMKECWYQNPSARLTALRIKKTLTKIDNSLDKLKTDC

Measured: binding result

B1: rat anti-human ALK2 monoclonal antibody produced by the hybridoma #200 (antibody, V domains shown)
VH: QVKLLQSGAALVKPGDSIRMSCKASGYTFTDYIIHWVKQSHGKSLEWIGYINPYSGGTNYNEKFKSKATLTVDKSSSTAYMEFCRLTSEDSAIYYCVRRGHDGTGFDYWGQGVMVTVSS
VL: DVVMTQTPVSLPVSLGGQASISCRSSQSLVHSNGETYLHWYLQKPGQSPQLLIYRVSNRFSGVPDRFSGSGSGTDFTLKLSRVEPEDLGDYYCLQSTHLPLTFGSGTKLEIKR
notes: Rat monoclonal antibody from a hybridoma; also called clone #200; ALK2_#200
binds: [1] | [2] | [3] | [4] | [5] | [6]

B2: rat anti-human ALK2 monoclonal antibody produced by the hybridoma #109 (antibody, V domains shown)
VH: EVQLVESGGDLVQPGRSMKLSCAASGFTFSNYGMAWVRQAPTKGLEWVATISYDGSGTYYRDSVEGRFTISRDNAKITLYLQMNSLRSEDTATYYCTRHGYSRVPYFDYWGQGVMVTVSS
VL: NIVLTQSPATLSVTPGESVSLSCRASQSISTNIHWYQQKSNESPRLLIKYASQSISGIPSRFSGSGSGTDFTLTINRVESEDFSIYYCQQSYSSQLTFGSGTKLEIKR
notes: Rat monoclonal antibody from a hybridoma
binds: [2]
